Results reported in article PMC12312033.

Key:
Test in all cases: NMR
Details in all cases: 286 K (pH measured at 21 °C), none, MilliQ water with 3.2 mM DSS-d6 and 0.13 mM EDTA, pH adjusted with NaOH/HCl, random coil
[1] = molecular target: Glu3 (position 3, ---GGEGG---)
[2] = molecular target: Glu17 (UniProt position 68, …)
[3] = molecular target: Glu24 (UniProt position 75, …)
[4] = molecular target: Glu21 (UniProt position 72, …)
[5] = 50 mM CaCl2, total ionic strength not stated, 50 mM CaCl2 (5-fold excess over 10 mM peptide)
[6] = not stated (no added salt; varies with NaOH/HCl additions), no Ca2+, 10 mM peptide

Row | Protein | pKa [1, 5] | pKa [1, 6] | pKa [2, 5] | pKa [2, 6] | pKa [3, 5] | pKa [3, 6] | pKa [4, 5] | pKa [4, 6]
1 | GGEGG [Model peptide 1, Ac-GGEGG-NH2 (synthetic)] | 4.30 | 4.34 |  |  |  |  |  | 
2 | PLEPRREVSELN [Osteocalcin P15-N26 peptide, uncarboxylated (Glu) form (peptide 5) (Homo sapiens; C23S)] |  |  | 4.25 | 4.26 | 4.20 | 4.19 | 4.28 | 4.33
